From patent US20260274985A1 (MYTHIC THERAPEUTICS, published 2026) come the findings set out here.

In the test the target is T1, Human TROP2 Protein, His Tag (Acro Biosystems) (human, UniProt P09758 27-274).
T1 construct: Bought protein; not shown: His tag
T1 sequence (looked up): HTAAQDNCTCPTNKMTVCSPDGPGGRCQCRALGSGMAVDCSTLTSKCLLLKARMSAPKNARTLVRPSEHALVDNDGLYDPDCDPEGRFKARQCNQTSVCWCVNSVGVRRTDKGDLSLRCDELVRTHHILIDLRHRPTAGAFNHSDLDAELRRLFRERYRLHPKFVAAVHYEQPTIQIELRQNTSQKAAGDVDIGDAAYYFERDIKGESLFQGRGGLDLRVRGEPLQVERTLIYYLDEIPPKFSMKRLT
In words: BLI (Octet). How it is done: After allowing for four days of protein expression, cell culture supernatants were collected, quantified by SDS-PAGE analysis (DNS), and the pH dependence of the variant was evaluated using biolayer interferometry (BLI) on an Octet RED 96e instrument. Briefly, cell culture supernatants were diluted based on qualitative expression level of the variant determined by visual examination of SDS-PAGE gels, 5 μL of cell culture supernatant was diluted into 195 μL of 1×PBST, pH 7.4 for high expressors, 25 μL of cell culture supernatant was diluted into 175 μL of 1×PBST, pH 7.4 for medium expressors and 100 μL of cell culture supernatant was diluted into 100 μL of 1×PBST, pH 7.4 for low expressors for loading onto the sensor tips. The resulting diluted supernatants were then captured on an anti-human Fc sensor (Forte Bio). A baseline was established using 1×PBST (50 mM Potassium Phosphate Buffer+150 mM NaCl+0.05% Tween 20) pH 7.4, and the sensor was associated with 50 nM of TROP2 (Human TROP2 Protein, His Tag, Acro Biosystems) in 1×PBST pH 7.4 for 120 sec to generate an association curve. In the dissociation phase, the antibody-antigen complex on the sensor was exposed to 1×PBST pH 7.4 or pH 5.4, for 300 sec. Association and dissociation phase curves were examined for the starting ABPC antibody (with no substitutions) and each corresponding antibody variant at pH 5.4 and pH 7.4 to inform on two criteria: a) enhanced dissociation (i.e., higher koff values) at pH 5.4 due to histidine or alanine substitution compared to the starting ABPC, (with no substitutions), and b) reduced dissociation at pH 7.4 (i.e., lower koff values) compared to pH 5.4 in the antibody variant itself and with the starting ABPC (with no substitutions). […] It was also noted that while some mutations obliterated TROP2 binding, others were tolerated with little or n change in TROP2 binding kinetics.

Positions count from the first letter of the chain named.

B1: MYT11567 (antibody, V domains shown)
VH: QVQLQQSGSELKKPGASVKVSCKASHYTFTNYGMNWVKQAPGQGLKWMGWINTYTGEPTYTDDFKGRFAFSLDTSVSTAYLQISSLKADDTAVYFCARGGFGSSYWYFDVWGQGSLVTVSS
VL: DIQLTQSPSSLSASVGDRVSITCKASQDVSIAVAWYQQKPGKAPKLLIYSASYRYTGVPDRFSGSGSGTDFTLTISSLQPEDFAVYYCQQHYITPLTFGAGTKVEIK
notes: Sacituzumab variant, His at HCV position 26 (H1 01)
As to B1, the binding result is reported as “binds”.

B2: MYT11594 (antibody, V domains shown)
VH: B1 VH with H26G, A97H
VL: B1 VL
notes: Sacituzumab variant, His at HCV position 97 (H3 01)
Consider B2, for which the binding result is recorded as “binds”.

B3: MYT11601 (antibody, V domains shown)
VH: B1 VH with H26G, S104H
VL: B1 VL
notes: Sacituzumab variant, His at HCV position 104 (H3 08)
Consider B3, for which the binding result is “binds”.

B4: MYT11607 (antibody, V domains shown)
VH: B1 VH with H26G, V110H
VL: B1 VL
notes: Sacituzumab variant, His at HCV position 110 (H3 14)
Regarding B4, the binding result is on record as “binds”.

B5: MYT11592 (antibody, V domains shown)
VH: B1 VH with H26G, K65H
VL: B1 VL
On to B5, for which the binding result is given as “binds”.

B6: MYT11608 (antibody, V domains shown)
VH: B1 VH with H26G
VL: B1 VL with K24H
notes: Sacituzumab variant, His at LCV position 24 (L1 01)
B6: the binding result is on record as “binds”.

B7: MYT11609 (antibody, V domains shown)
VH: B1 VH with H26G
VL: B1 VL with A25H
notes: Sacituzumab variant, His at LCV position 25 (L1 02)
For B7, the binding result was “binds”.

B8: MYT11581 (antibody, V domains shown)
VH: B1 VH with H26G, Y54H
VL: B1 VL
notes: Sacituzumab variant, His at HCV position 54 (H2 05)
Take B8: the binding result is “binds”.

B9: MYT11572 (antibody, V domains shown)
VH: B1 VH with H26G, N31H
VL: B1 VL
notes: Sacituzumab variant, His at HCV position 31 (H1 06)
As to B9, the binding result is on record as “binds”.

B10: MYT11602 (antibody, V domains shown)
VH: B1 VH with H26G, Y105H
VL: B1 VL
Turning to B10, the binding result was “binds”.

B11: MYT11568 (antibody, V domains shown)
VH: B1 VH with H26G, Y27H
VL: B1 VL
notes: Sacituzumab variant, His at HCV position 27 (H1 02)
Turning to B11, the binding result was “binds”.

B12: MYT11587 (antibody, V domains shown)
VH: B1 VH with H26G, Y60H
VL: B1 VL
On to B12, for which the binding result is “binds”.

B13: MYT11575 (antibody, V domains shown)
VH: B1 VH with H26G, M34H
VL: B1 VL
notes: Sacituzumab variant, His at HCV position 34 (H1 09)
B13: the binding result is “binds”.

B14: MYT11580 (antibody, V domains shown)
VH: B1 VH with H26G, T53H
VL: B1 VL
notes: Sacituzumab variant, His at HCV position 53 (H2 04)
Regarding B14, the binding result was “binds”.

B15: MYT11584 (antibody, V domains shown)
VH: B1 VH with H26G, E57H
VL: B1 VL
notes: Sacituzumab variant, His at HCV position 57 (H2 08)
Regarding B15, the binding result is “binds”.

B16: MYT11576 (antibody, V domains shown)
VH: B1 VH with H26G, N35H
VL: B1 VL
notes: Sacituzumab variant, His at HCV position 35 (H1 10)
Turning to B16, the binding result is recorded as “binds”.

B17: MYT11582 (antibody, V domains shown)
VH: B1 VH with H26G, T55H
VL: B1 VL
notes: Sacituzumab variant, His at HCV position 55 (H2 06)
For B17, the binding result is “binds”.

B18: MYT11573 (antibody, V domains shown)
VH: B1 VH with H26G, Y32H
VL: B1 VL
Turning to B18, the binding result was “binds”.

B19: MYT11574 (antibody, V domains shown)
VH: B1 VH with H26G, G33H
VL: B1 VL
With B19, the binding result is “binds”.

B20: MYT11591 (antibody, V domains shown)
VH: B1 VH with H26G, F64H
VL: B1 VL
notes: Sacituzumab variant, His at HCV position 64 (H2 15)
Take B20: the binding result was “binds”.

B21: MYT11588 (antibody, V domains shown)
VH: B1 VH with H26G, T61H
VL: B1 VL
notes: Sacituzumab variant, His at HCV position 61 (H2 12)
For the molecule B21, the binding result was “binds”.

B22: MYT11605 (antibody, V domains shown)
VH: B1 VH with H26G, F108H
VL: B1 VL
Take B22: the binding result was “binds”.

B23: MYT11578 (antibody, V domains shown)
VH: B1 VH with H26G, I51H
VL: B1 VL
notes: Sacituzumab variant, His at HCV position 51 (H2 02)
Regarding B23, the binding result is “binds”.

B24: MYT11569 (antibody, V domains shown)
VH: B1 VH with H26G, T28H
VL: B1 VL
notes: Sacituzumab variant, His at HCV position 28 (H1 03)
For the molecule B24, the binding result was “binds”.

B25: MYT11570 (antibody, V domains shown)
VH: B1 VH with H26G, F29H
VL: B1 VL
notes: Sacituzumab variant, His at HCV position 29 (H1 04)
On to B25, for which the binding result is “binds”.

B26: MYT11577 (antibody, V domains shown)
VH: B1 VH with H26G, W50H
VL: B1 VL
Regarding B26, the binding result was “binds”.

B27: MYT11595 (antibody, V domains shown)
VH: B1 VH with H26G, R98H
VL: B1 VL
notes: Sacituzumab variant, His at HCV position 98 (H3 02)
Consider B27, for which the binding result is listed as “binds”.

B28: MYT11589 (antibody, V domains shown)
VH: B1 VH with H26G, D62H
VL: B1 VL
Regarding B28, the binding result is “binds”.

B29: MYT11586 (antibody, V domains shown)
VH: B1 VH with H26G, T59H
VL: B1 VL
notes: Sacituzumab variant, His at HCV position 59 (H2 10)
On to B29, for which the binding result is on record as “binds”.

B30: MYT11598 (antibody, V domains shown)
VH: B1 VH with H26G, F101H
VL: B1 VL
notes: Sacituzumab variant, His at HCV position 101 (H3 05)
With B30, the binding result is listed as “binds”.

B31: MYT11596 (antibody, V domains shown)
VH: B1 VH with H26G, G99H
VL: B1 VL
In the case of B31, the binding result is “binds”.

B32: MYT11579 (antibody, V domains shown)
VH: B1 VH with H26G, N52H
VL: B1 VL
notes: Sacituzumab variant, His at HCV position 52 (H2 03)
Regarding B32, the binding result is listed as “binds”.

B33: MYT11571 (antibody, V domains shown)
VH: B1 VH with H26G, T30H
VL: B1 VL
notes: Sacituzumab variant, His at HCV position 30 (H1 05)
B33: the binding result is “binds”.

B34: MYT11593 (antibody, V domains shown)
VH: B1 VH with H26G, G66H
VL: B1 VL
Turning to B34, the binding result is on record as “binds”.

B35: MYT11585 (antibody, V domains shown)
VH: B1 VH with H26G, P58H
VL: B1 VL
notes: Sacituzumab variant, His at HCV position 58 (H2 09)
With B35, the binding result is recorded as “binds”.

B36: MYT11590 (antibody, V domains shown)
VH: B1 VH with H26G, D63H
VL: B1 VL
notes: Sacituzumab variant, His at HCV position 63 (H2 14)
B36: the binding result is “binds”.
